Patent publication US20180155451A1 (published 2018)
Positions count from the first letter of the chain named. In names and notes the source's numbering stands. Where two headings read alike, the source gives them in different places. Each block holds one binder with its values, some of them ahead of it.

Key:
[1] = biological target: T1, FcgRIa extracellular domain with C-terminal His tag (human, UniProt P12314 16-292); assay: SPR (Biacore), antibody captured on chip, FcγR extracellular domain as analyte, kinetic analysis
T1 construct: extracellular domain; Expressed in FreeStyle293 cells; used as analyte in Biacore; also called FcγRIa; FcγRI; not shown: His tag attached to the C terminus
T1 sequence (P12314 16-292): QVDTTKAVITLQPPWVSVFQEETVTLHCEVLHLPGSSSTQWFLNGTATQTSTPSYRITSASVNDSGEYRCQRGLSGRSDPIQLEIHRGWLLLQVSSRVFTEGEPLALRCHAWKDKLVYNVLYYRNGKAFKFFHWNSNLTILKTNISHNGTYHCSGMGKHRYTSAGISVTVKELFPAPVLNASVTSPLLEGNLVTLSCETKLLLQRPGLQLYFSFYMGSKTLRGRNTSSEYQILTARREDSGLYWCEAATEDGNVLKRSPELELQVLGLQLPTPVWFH
Description: (§1) Analysis of interaction between obj ective antibody and the FcγR was carried out using Biacore T100 (GE Healthcare), Biacore T200, Biacore A100, and Biacore 4000. HBS-EP+ (GE Healthcare) was used as the running buffer, and the measurement temperature was set to 25° C. Chips produced by immobilizing the antigen peptide by the amine coupling method to a Series S sensor Chip CM5 (GE Healthcare), chips produced by allowing preliminarily biotinylated antigen peptides to interact with and immobilize onto a Series S Sensor Chip SA (certified) (GE Healthcare), chips produced by immobilizing Protein L (ACTIGEN, BioVision) to Series S Sencor Chip CM5 (GE Healthcare), or chips produced by immobilizing Protein A/G (Thermo Scientific) to Series S Sencor Chip CM5 (GE Healthcare) were used. Antibodies of interest were captured onto these chips, and allowed to interact to each FcγR diluted with running buffer. To regenerate and repeatedly use the chip, the antibodies captured onto the chip were washed off by reacting 10 mM glycine-HCl, pH 1.5.

[2] = biological target: T2, FcgRIIa R extracellular domain with C-terminal His tag (human, UniProt P12318 34-217); assay: as above
T2 construct: extracellular domain; also called FcγRIIa R; FcγRIIa type R; not shown: His tag attached to the C terminus
T2 sequence (looked up): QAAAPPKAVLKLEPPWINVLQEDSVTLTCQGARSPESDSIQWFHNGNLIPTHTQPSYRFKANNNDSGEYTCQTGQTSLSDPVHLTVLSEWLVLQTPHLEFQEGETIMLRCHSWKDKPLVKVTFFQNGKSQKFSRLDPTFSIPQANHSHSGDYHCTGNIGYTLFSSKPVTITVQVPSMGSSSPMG
Description: as §1

[3] = biological target: T3, FcgRIIa H extracellular domain with C-terminal His tag (human, UniProt P12318 34-217); assay: as above
T3 construct: extracellular domain; also called FcγRIIa H; FcγRIIa type H; not shown: His tag attached to the C terminus
T3 sequence (looked up): T2 sequence (looked up) with R134H
Description: as §1

[4] = biological target: T4, FcgRIIb extracellular domain with C-terminal His tag (human, UniProt P31994 43-217); assay: as above
T4 construct: extracellular domain; also called FcγRIIb; not shown: His tag attached to the C terminus
T4 sequence (looked up): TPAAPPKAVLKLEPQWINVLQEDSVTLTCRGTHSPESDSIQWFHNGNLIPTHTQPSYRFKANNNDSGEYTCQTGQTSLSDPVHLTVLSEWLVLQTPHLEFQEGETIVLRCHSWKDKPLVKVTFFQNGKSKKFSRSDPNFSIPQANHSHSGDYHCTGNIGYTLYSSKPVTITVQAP
Description: as §1

[5] = biological target: T5, FcgRIIIa F extracellular domain with C-terminal His tag (human, UniProt P08637 17-208); assay: as above
T5 construct: extracellular domain; also called FcγRIIIa F; FcγRIIIa (F158); not shown: His tag attached to the C terminus
T5 sequence (P08637 17-208): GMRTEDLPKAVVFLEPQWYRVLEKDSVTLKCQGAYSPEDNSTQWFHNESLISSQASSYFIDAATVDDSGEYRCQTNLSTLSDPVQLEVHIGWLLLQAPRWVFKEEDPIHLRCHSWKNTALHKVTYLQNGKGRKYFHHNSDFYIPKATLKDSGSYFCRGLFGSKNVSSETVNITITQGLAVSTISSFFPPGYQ
Description: as §1

[6] = biological target: T6, FcgRIIIa V extracellular domain with C-terminal His tag (human, UniProt P08637 17-208); assay: as above
T6 construct: extracellular domain; also called FcγRIIIa V; FcγRIIIa (V158); not shown: His tag attached to the C terminus
T6 sequence (P08637 17-208 F176V): as the sequence (P08637 17-208) above, with F160V counted along it
Description: as §1

[7] = biological target: T5, FcgRIIIa F extracellular domain with …; assay: as above; remark: listed apart in the source
Description: as §1

[8] = biological target: T6, FcgRIIIa V extracellular domain with …; assay: as above; remark: listed apart in the source
Description: as §1

FcgRIIIa F [9] = biological target: T7, FcgRIIIa F (human, UniProt P08637 17-208); assay: SPR (Biacore), antibody captured on chip, FcgR extracellular domain as analyte
T7 construct: extracellular domain; also called FcγRIIIa F; not shown: His tag attached to the C terminus
T7 sequence (P08637 17-208): as the sequence (P08637 17-208) above
Description: (§2) Similarly, H240-AK072 and L73-k0, and H240-BH076 and L73-k0 were each combined to express and prepare the homodimerized antibodies H240-AK072/L73-k0 and H240-BH076/L73-k0. The antibodies were compared for the binding to each FcgR according to the method described in Reference Example 8.
as §1

FcgRIIIa V [10] = biological target: T8, FcgRIIIa V (human, UniProt P08637 17-208); assay: as above
T8 construct: extracellular domain; also called FcγRIIIa V; not shown: His tag attached to the C terminus
T8 sequence (P08637 17-208 F176V limits assumed): as the sequence (P08637 17-208) above, with F160V counted along it
Description: as §2, §1

FcgRIa = biological target: T9, FcgRIa (human, UniProt P12314 16-292); assay: as above
T9 construct: extracellular domain; Expressed in FreeStyle293 cells and purified; used as analyte in Biacore; also called FcγRIa; FcγRI; not shown: His tag attached to the C terminus
T9 sequence (P12314 16-292): as the sequence (P12314 16-292) above
Description: as §1

FcgRIIa R = biological target: T10, FcgRIIa R (human, UniProt P12318 34-217); assay: as above
T10 construct: extracellular domain; also called FcγRIIa R; FcγRIIa type R; not shown: His tag attached to the C terminus
T10 sequence (looked up): T2 sequence (looked up)
Description: as §1

FcgRIIa H = biological target: T11, FcgRIIa H (human, UniProt P12318 34-217); assay: as above
T11 construct: extracellular domain; also called FcγRIIa H; FcγRIIa type H; not shown: His tag attached to the C terminus
T11 sequence (looked up): T2 sequence (looked up) with R134H
Description: as §1

FcgRIIb = biological target: T12, FcgRIIb (human, UniProt P31994 43-217); assay: as above
T12 construct: extracellular domain; Expressed in FreeStyle293 cells and purified; used as analyte in Biacore; also called FcγRIIb; CD32B; not shown: His tag attached to the C terminus
T12 sequence (looked up): T4 sequence (looked up)
Description: as §1

FcgRIIIa F [11] = biological target: T7, FcgRIIIa F; assay: as above; remark: listed apart in the source
Description: as §1

FcgRIIIa V [12] = biological target: T8, FcgRIIIa V; assay: as above; remark: listed apart in the source
Description: as §1

B1: H240-Kn061/H240-Hl071/L73-k0 (antibody, human IgG1, kappa)
heavy 1: QDQLVQSGAEVKKPGASVKVSCKASGFNIKDTYIQWVRQAPGQGLEWMGRIDPLRKQTKYREKFEGRVTITADTSTNTAYMELSSLRSEDTAVYYCVRSGREFDYWGQGTLVTVSSASTKGPSVFPLAPSSKSTSGGTAALGCLVKDYFPEPVTVSWNSGALTSGVHTFPAVLQSSGLYSLSSVVTVPSSSLGTQTYICNVNHKPSNTKVDKKVEPKSCDKTHTCPPCPAPEYYWGPSVFLFPPKPKDTLMISRTPEVTCVVVDVSDEDPEVKFNWYVDGVEVHNAKTKPREEQYNATYRVVSVLTVLHQDWLNGKEYKCKVSNKALPAPIEKTISKAKGQPREPQVCTLPPSRDELTKNQVSLWCLVKGFYPSDIAVEWESNGQPENNYKTTPPVLDSDGSFFLYSKLTVDKSRWQQGNVFSCSVMHEALHNHYTQKSLSLSP
heavy 2: QDQLVQSGAEVKKPGASVKVSCKASGFNIKDTYIQWVRQAPGQGLEWMGRIDPLRKQTKYREKFEGRVTITADTSTNTAYMELSSLRSEDTAVYYCVRSGREFDYWGQGTLVTVSSASTKGPSVFPLAPSSKSTSGGTAALGCLVKDYFPEPVTVSWNSGALTSGVHTFPAVLQSSGLYSLSSVVTVPSSSLGTQTYICNVNHKPSNTKVDKKVEPKSCDKTHTCPPCPAPELLGGPSVFLFPPKPKDTLMISRTPEVTCVVVDVSHEDPEVKFNWYVDGVEVHNAKTKPREEQYNSTYRVVSVLTVLHQDWLNGKEYKCKVSNDALPMPIEETISKAKGQPREPQVYTLPPSRCELTKNQVSLSCAVKGFYPSDIAVEWESNGQPENNYKTTPPVLDSDGSFFLVSKLTVDKSRWQQGNVFSCSVMHEALHNHYTQKSLSLSP
light: DIQMTQSPSSLSASVGDRVTITCRASQDIHKYIAWYQQKPGQAPRLLIQYTSTLQPGVPSRFSGSGSGTDYTFTISSLQPEDIATYYCLQYEQLRTFGGGTKVEIKRTVAAPSVFIFPPSDEQLKSGTASVVCLLNNFYPREAKVQWKVDNALQSGNSQESVTEQDSKDSTYSLSSTLTLSKADYEKHKVYACEVTHQGLSSPVTKSFNRGEC
notes: Kn061: L234Y/L235Y/G236W/H268D/S298A; Hl071: K326D/A330M/K334E; also called H240-Kn061/H240-HI071/L73-k0
Kd [1]: 0.14 nM
Kd [2]: 350 nM
Kd [3]: 280 nM
Kd [4]: 1200 nM
Kd [5]: 5.1 nM
Kd [6]: 1.8 nM
Kd [7]: 5.1 nM
Kd [8]: 1.8 nM

B2: H240-AK072/H240-BH076/L73-k0 (antibody, human IgG1, kappa)
heavy 1: B1 heavy 1 with D269E, C348Y, D355K, L357M, W365T, H434R
heavy 2: B1 heavy 2 with D269E, C355E, L357M, S365T, A367L, V406Y, K438E
light: B1 light
notes: Heterodimerized anti-EREG IgG1 made with D356K/H435R and K439E in place of knobs-into-holes
Kd (FcgRIIIa F [9]): 3.7 nM
Kd (FcgRIIIa V [10]): 0.98 nM
Kd (FcgRIa): 0.24 nM
Kd (FcgRIIa R): 460 nM
Kd (FcgRIIa H): 130 nM
Kd (FcgRIIb): 2900 nM
Kd (FcgRIIIa F [11]): 3.7 nM
Kd (FcgRIIIa V [12]): 0.98 nM

B3: H240-Kn061/H240-Hl134/L73-k0 (antibody, human IgG1, kappa)
heavy 1: B1 heavy 1
heavy 2: B1 heavy 1 with C348Y, D355C, W365S, L367A, Y406V
light: B1 light
notes: L234Y/L235Y/G236W/H268D/S298A in both H chains (called homodimerized); also called H240-Kn061/H240-HI134/L73-k0
Kd [7]: 660 nM
Kd [8]: 86 nM

B5: H240-Kn132/H240-Hl071/L73-k0 (antibody, human IgG1, kappa)
heavy 1: B1 heavy 2 with Y348C, C355D, S365W, A367L, V406Y
heavy 2: B1 heavy 2
light: B1 light
notes: K326D/A330M/K334E in both H chains (called homodimerized); also called H240-Kn132/H240-HI071/L73-k0
Kd [7]: 77 nM
Kd [8]: 16 nM

Next, values leading:

Kd (FcgRIIIa F [9]): 26 nM
Kd (FcgRIIIa V [10]): 5.3 nM
B4: H240-BH076/L73-k0 (antibody, human IgG1, kappa)
heavy: B1 heavy 2 with D269E, C355E, L357M, S365T, A367L, V406Y, K438E
light: B1 light
notes: Homodimerized anti-EREG IgG1: H240-B3E (K439E) with D270E/K326D/A330M/K334E in both H chains

Kd (FcgRIIIa F [9]): 300 nM
Kd (FcgRIIIa V [10]): 29 nM
B6: H240-AK072/L73-k0 (antibody, human IgG1, kappa)
heavy: B1 heavy 1 with D269E, C348Y, D355K, L357M, W365T, H434R
light: B1 light
notes: Homodimerized anti-EREG IgG1: H240-A5E (D356K/H435R) with L234Y/L235Y/G236W/H268D/D270E/S298A in both H chains
